From US20110038894A1 (NATIONAL HEALTH RESEARCH INSTITUTES, published 2011)

Biological target: His-tag fused human HLA-A2 heavy chain (His-HLA-A2) with His-Tag fused human β2-microglobulin (His-β2) (human)
Test: MHC-peptide complex formation assay: refolding of His-HLA-A2, His-β2m and peptide, sandwich ELISA (W6/32 capture, anti-β2m detection), relative to positive control peptide

Row | Binder | Relative binding (%)
1 | VINGVLGGI (also called TAL6 181-189) [TAL6 peptide No. 16 of Table 1, VINGVLGGI] | 59.1
2 | SVLAALIGI (also called TAL6 93-101) [TAL6 peptide No. 9 of Table 1, SVLAALIGI] | 158
3 | LLMLLPAFV (also called TAL6 58-66) [TAL6 peptide No. 5 of Table 1, LLMLLPAFV] | 134
4 | ALGGIEFIL (also called TAL6 168-176) [TAL6 peptide No. 14 of Table 1, ALGGIEFIL] | 113
5 | HIVEWNVSL (also called TAL6 154-162) [TAL6 peptide No. 11 of Table 1, HIVEWNVSL] | 91.1
6 | ALLCIAANI (also called TAL6 18-26) [TAL6 peptide No. 3 of Table 1, ALLCIAANI] | 53.6
7 | IVGGGLLML (also called TAL6 53-61) [TAL6 peptide No. 4 of Table 1, IVGGGLLML] | 43.4
8 | CLIQVINGV (also called TAL6 177-185) [TAL6 peptide No. 15 of Table 1, CLIQVINGV] | 26.3
9 | CIGHSLVGL (also called TAL6 9-17) [TAL6 peptide No. 1 of Table 1, CIGHSLVGL] | 93.3
10 | MLLPAFVFI (also called TAL6 60-68) [TAL6 peptide No. 6 of Table 1, MLLPAFVFI] | 155
11 | GLAEGPLCL (also called TAL6 114-122) [TAL6 peptide No. 10 of Table 1, GLAEGPLCL] | 72.4
12 | AMLSSVLAA (also called TAL6 89-97) [TAL6 peptide No. 7 of Table 1, AMLSSVLAA] | 115
13 | SLVGLALLC (also called TAL6 13-21) [TAL6 peptide No. 2 of Table 1, SLVGLALLC] | 126
14 | MLSSVLAAL (also called TAL6 90-98) [TAL6 peptide No. 8 of Table 1, MLSSVLAAL] | 163
15 | SLFSILLAL (also called TAL6 161-169) [TAL6 peptide No. 12 of Table 1, SLFSILLAL] | 42.6
16 | SILLALGGI (also called TAL6 164-172) [TAL6 peptide No. 13 of Table 1, SILLALGGI] | 51.8
